The source of these data is article PMC9482650, “Quantitative fragmentomics allow affinity mapping of interactomes” (Nature Communications, 2022).

For orientation: pKd means −log10 of the Kd, conventionally taken in molar units.

Holding throughout (assay): holdup assay
What all share (design): key: below the threshold = too weak to quantify, mostly under pKd 3.1 to 4

In experiment [1] the target is Inadl_4, Q8NI35.
Experiment [2] deals with T1, RAPGEF6, Q8TEU7.
T1 sequence (Q8TEU7 525-625, limits assumed, looked up): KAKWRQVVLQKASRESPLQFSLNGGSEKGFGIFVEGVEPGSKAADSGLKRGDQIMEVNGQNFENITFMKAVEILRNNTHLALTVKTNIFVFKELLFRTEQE

Experiment [3] deals with T2, LIN7C, Q9NUP9.
T2 sequence (Q9NUP9 88-185, limits assumed, looked up): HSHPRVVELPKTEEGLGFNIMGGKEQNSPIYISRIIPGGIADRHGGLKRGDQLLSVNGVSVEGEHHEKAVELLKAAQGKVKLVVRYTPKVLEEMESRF

Experiment [4] addresses DLG4_1, P78352.
Experiment [5] has as its target T3, APBA1_1, Q02410.
T3 sequence (Q02410 651-752, limits assumed, looked up): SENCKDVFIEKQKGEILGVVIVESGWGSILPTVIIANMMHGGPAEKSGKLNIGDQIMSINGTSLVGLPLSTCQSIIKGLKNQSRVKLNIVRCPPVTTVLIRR

Experiment [6] addresses T4, SYNJ2BP, P57105.
T4 sequence (P57105 8-110, limits assumed, looked up): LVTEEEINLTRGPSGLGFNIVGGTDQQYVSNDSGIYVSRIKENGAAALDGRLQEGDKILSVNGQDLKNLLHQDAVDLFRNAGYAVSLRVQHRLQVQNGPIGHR

For experiment [7], the target named is T5, PDZD7_3, Q9H5P4.
T5 sequence (Q9H5P4 857-944, limits assumed, looked up): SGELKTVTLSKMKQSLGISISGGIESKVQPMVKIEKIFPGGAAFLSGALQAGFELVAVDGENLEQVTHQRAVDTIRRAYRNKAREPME

In experiment [8] the target is T6, TIAM2, Q8IVF5.
T6 sequence (Q8IVF5 885-986, limits assumed, looked up): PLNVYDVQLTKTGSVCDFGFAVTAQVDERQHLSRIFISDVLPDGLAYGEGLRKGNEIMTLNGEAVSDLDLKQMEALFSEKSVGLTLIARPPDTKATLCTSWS

For experiment [9], the target named is DLG1_3, Q12959.
The target in experiment [10] is Inadl_3, Q8NI35.
Sequence of Inadl_3, Q8NI35 (Q8NI35 359-469): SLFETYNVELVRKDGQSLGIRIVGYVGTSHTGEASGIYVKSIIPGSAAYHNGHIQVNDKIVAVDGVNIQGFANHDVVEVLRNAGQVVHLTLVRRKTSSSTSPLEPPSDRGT
The target of experiment [11] is DLG1_1, Q12959.
Experiment [12] addresses T7, HTRA4, P83105.
T7 sequence (P83105 378-476, limits assumed, looked up): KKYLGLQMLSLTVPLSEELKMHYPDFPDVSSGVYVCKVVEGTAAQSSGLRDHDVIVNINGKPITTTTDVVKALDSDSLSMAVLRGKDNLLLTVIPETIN

For experiment [13], the target named is MAGI1_2, Q96QZ7.
Sequence of MAGI1_2, Q96QZ7 (Q96QZ7 456-580): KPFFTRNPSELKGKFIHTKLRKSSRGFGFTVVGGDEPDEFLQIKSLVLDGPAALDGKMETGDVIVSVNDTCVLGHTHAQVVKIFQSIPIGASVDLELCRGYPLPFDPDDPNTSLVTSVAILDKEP
Experiment [14] has as its target T8, SNTA1, Q13424.
T8 sequence (Q13424 82-180, limits assumed, looked up): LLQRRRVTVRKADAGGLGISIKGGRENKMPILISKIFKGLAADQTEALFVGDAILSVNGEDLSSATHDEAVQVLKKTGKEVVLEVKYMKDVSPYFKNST

Experiment [15] addresses MAGI2_5, Q86UL8.
Experiment [16] deals with T9, DFNB31_3, Q9P202.
T9 sequence (Q9P202 811-907, limits assumed, looked up): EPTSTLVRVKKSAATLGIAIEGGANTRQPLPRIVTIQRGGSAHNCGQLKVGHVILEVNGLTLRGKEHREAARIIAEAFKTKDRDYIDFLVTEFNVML

Experiment [17] concerns the target T10, APBA2_1, Q99767.
T10 sequence (Q99767 563-664, limits assumed, looked up): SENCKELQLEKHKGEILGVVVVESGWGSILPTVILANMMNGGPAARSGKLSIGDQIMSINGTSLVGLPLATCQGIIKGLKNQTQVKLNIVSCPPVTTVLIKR

The target in experiment [18] is T11, APBA2_2, Q99767.
T11 sequence (Q99767 654-744, limits assumed, looked up): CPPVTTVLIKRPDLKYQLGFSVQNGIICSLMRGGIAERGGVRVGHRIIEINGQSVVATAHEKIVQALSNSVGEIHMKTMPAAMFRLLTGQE

Experiment [19] deals with Inadl_9, Q8NI35.
Sequence of Inadl_9, Q8NI35 (Q8NI35 1530-1615): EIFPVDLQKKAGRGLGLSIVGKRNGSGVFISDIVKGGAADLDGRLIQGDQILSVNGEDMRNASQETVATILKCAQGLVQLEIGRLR
In experiment [20] the target is T12, GRIP1_2, Q9Y3R0.
T12 sequence (Q9Y3R0 145-248, limits assumed, looked up): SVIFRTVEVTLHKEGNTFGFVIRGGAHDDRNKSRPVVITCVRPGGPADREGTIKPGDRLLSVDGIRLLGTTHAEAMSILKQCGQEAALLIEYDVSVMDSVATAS

Experiment [21] deals with T13, TX1BP3, O14907.
T13 sequence (O14907 10-122, limits assumed, looked up): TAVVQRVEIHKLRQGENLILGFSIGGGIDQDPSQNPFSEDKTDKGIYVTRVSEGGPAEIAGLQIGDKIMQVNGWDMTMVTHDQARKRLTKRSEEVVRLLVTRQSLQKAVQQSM

The target in experiment [22] is T14, GRIP1_3, Q9Y3R0.
T14 sequence (Q9Y3R0 247-346, limits assumed, looked up): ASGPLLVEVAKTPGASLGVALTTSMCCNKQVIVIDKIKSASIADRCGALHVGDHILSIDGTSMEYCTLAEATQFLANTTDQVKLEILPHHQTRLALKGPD

Where [23] appears, read: plain residues with an end cap or a label only (N-terminal biotin on a linker: ttds).
The mark [24] stands for this setting: plain residues with an end cap or a label only (N-terminal biotin on a linker: gsgsgs; C-terminal amide).
[25] abbreviates: plain residues with an end cap or a label only (N-terminal biotin on a linker: ado-ado).

Sequence of MAGI2_5, Q86UL8 (Q86UL8 915-1017): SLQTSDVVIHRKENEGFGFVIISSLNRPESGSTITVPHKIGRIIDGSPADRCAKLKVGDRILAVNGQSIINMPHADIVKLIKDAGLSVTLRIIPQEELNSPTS
Sequence of DLG4_1, P78352 (P78352 62-152): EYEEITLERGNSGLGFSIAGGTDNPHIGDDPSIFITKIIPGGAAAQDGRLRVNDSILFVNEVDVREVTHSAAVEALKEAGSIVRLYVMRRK
Sequence of Inadl_4, Q8NI35 (Q8NI35 547-651): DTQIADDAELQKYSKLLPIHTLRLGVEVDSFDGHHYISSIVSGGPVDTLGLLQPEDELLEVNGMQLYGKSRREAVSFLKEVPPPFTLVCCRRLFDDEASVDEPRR

For HRTCYLVTQL [ASIC3, Q9UHC3], the pKd entry in [1] (setting [23]) is “below the threshold”; in experiment [2] (setting [23]), 3.49; in experiment [3] (setting [23]) it was 3.41; in experiment [4] (setting [23]), 3.78; in [5] (setting [23]), “below the threshold”; in experiment [6] (setting [23]), 4.72. Besides, the pKd in experiment [7] (setting [23]) was 5.47; in experiment [8] (setting [23]) it was 3.3; in experiment [9] (setting [23]) it was 4.56; in experiment [10] (setting [23]), 3.33; in experiment [11] (setting [23]), 3.97; in experiment [12] (setting [23]), 4.83. The negative-log Kd (pKd) was 4.83 in experiment [13] (setting [23]); 3.88 in [14] (setting [23]); 4.63 in experiment [15] (setting [23]); 4.25 in experiment [16] (setting [23]); “below the threshold” in experiment [17] (setting [23]); “below the threshold” in [18] (setting [23]). Moreover, the pKd entry was “below the threshold” in experiment [19] (setting [23]), “below the threshold” in experiment [20] (setting [23]), 5.08 in experiment [21] (setting [23]) and “below the threshold” in experiment [22] (setting [23]).

As to GGPKEEESPV [SLC16A1, P53985], the pKd result was “below the threshold” in experiment [1] (setting [23]); “below the threshold” in experiment [2] (setting [23]); “below the threshold” in experiment [3] (setting [23]); “below the threshold” in experiment [4] (setting [23]); “below the threshold” in [5] (setting [23]); 4.32 in [6] (setting [23]). Besides, the pKd result in experiment [7] (setting [23]), in [8] (setting [23]), in experiment [9] (setting [23]), in experiment [10] (setting [23]), in [11] (setting [23]) and in experiment [12] (setting [23]) was “below the threshold” each time. Also, the pKd result in [13] (setting [23]) is “below the threshold”; in [14] (setting [23]) it was “below the threshold”; in [15] (setting [23]), 3.62; in experiment [16] (setting [23]) it was “below the threshold”; in [17] (setting [23]) it was “below the threshold”; in [18] (setting [23]), “below the threshold”. Moreover, the pKd entry in [19] (setting [23]), in experiment [20] (setting [23]), in [21] (setting [23]) and in [22] (setting [23]) was “below the threshold” in each case.

With ELIQDTSTSFSTTREW [ARAP3_int, Q8WWN8], the pKd entry was “below the threshold” in experiment [1] (setting [24]); “below the threshold” in [2] (setting [24]); 4.11 in experiment [3] (setting [24]); “below the threshold” in experiment [4] (setting [24]); “below the threshold” in experiment [5] (setting [24]); “below the threshold” in experiment [6] (setting [24]). The pKd entry in experiment [7] (setting [24]) is “below the threshold”; in experiment [8] (setting [24]), 3.97; in experiment [9] (setting [24]), “below the threshold”; in experiment [10] (setting [24]), “below the threshold”; in experiment [11] (setting [24]), “below the threshold”; in experiment [12] (setting [24]), “below the threshold”. In addition, the pKd entry is “below the threshold” in experiment [13] (setting [24]); “below the threshold” in experiment [14] (setting [24]); “below the threshold” in experiment [15] (setting [24]); 3.83 in [16] (setting [24]); “below the threshold” in [17] (setting [24]); “below the threshold” in [18] (setting [24]). For the same molecule, the pKd entry in experiment [19] (setting [24]) was “below the threshold”; in experiment [20] (setting [24]), “below the threshold”; in [21] (setting [24]) it was 3.92; in experiment [22] (setting [24]) it was “below the threshold”.

With EEPEERHTEL [CES2, O00748], the pKd result was “below the threshold” in experiment [1] (setting [25]); 3.56 in experiment [2] (setting [25]); “below the threshold” in experiment [3] (setting [25]); “below the threshold” in experiment [4] (setting [25]); “below the threshold” in [5] (setting [25]); 4.18 in experiment [6] (setting [25]). The pKd was 4.72 in experiment [7] (setting [25]); 4.07 in experiment [8] (setting [25]); 3.52 in [9] (setting [25]); “below the threshold” in experiment [10] (setting [25]); “below the threshold” in experiment [11] (setting [25]); “below the threshold” in [12] (setting [25]). The pKd entry was “below the threshold” in [13] (setting [25]); 4.68 in experiment [14] (setting [25]); 4.4 in experiment [15] (setting [25]); 3.86 in experiment [16] (setting [25]); “below the threshold” in experiment [17] (setting [25]); “below the threshold” in experiment [18] (setting [25]). Further, the pKd entry in experiment [19] (setting [25]), in experiment [20] (setting [25]), in experiment [21] (setting [25]) and in [22] (setting [25]) was “below the threshold” in each case.

Regarding LHLHGTGIQV [EPHA7, Q15375], the pKd entry in [1] (setting [25]) was “below the threshold”; in experiment [2] (setting [25]), “below the threshold”; in [3] (setting [25]) it was 4.08; in experiment [4] (setting [25]), 3.73; in experiment [5] (setting [25]), “below the threshold”; in experiment [6] (setting [25]), 3.7. Besides, the pKd result in experiment [7] (setting [25]) is “below the threshold”; in experiment [8] (setting [25]), “below the threshold”; in experiment [9] (setting [25]), 3.69; in experiment [10] (setting [25]), 3.55; in experiment [11] (setting [25]), “below the threshold”; in experiment [12] (setting [25]), 4.1. The pKd entry in experiment [13] (setting [25]) was “below the threshold”; in [14] (setting [25]), “below the threshold”; in experiment [15] (setting [25]) it was “below the threshold”; in experiment [16] (setting [25]), 3.99; in experiment [17] (setting [25]) it was “below the threshold”; in [18] (setting [25]), “below the threshold”. Also, the pKd was 4.37 in [19] (setting [25]), “below the threshold” in experiment [20] (setting [25]), 4.12 in experiment [21] (setting [25]) and “below the threshold” in experiment [22] (setting [25]).
